{"source": "paper PMC12521702", "about": "(2025)", "key": {"TNF": {"molecular_target": "TNF (human, UniProt P01375)", "sequence (P01375 77-233)": "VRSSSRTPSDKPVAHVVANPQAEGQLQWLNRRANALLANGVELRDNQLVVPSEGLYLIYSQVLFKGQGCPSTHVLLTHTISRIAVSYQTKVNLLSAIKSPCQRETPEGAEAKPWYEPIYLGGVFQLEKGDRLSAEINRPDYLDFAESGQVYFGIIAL", "test": "SPR"}, "[1]": {"molecular_target": "SARS-CoV-2 prototype (PT) RBD (SARS-CoV-2, UniProt P0DTC2)", "test": "SPR"}}, "data": [{"binder": "TNFR2-Fc (Fc fusion) LPAQVAFTPYAPEPGSTCRLREYYDQTAQMCCSKCSPGQHAKVFCTKTSDTVCDSCEDSTYTQLWNWVPECLSCGSRCSSDQVETQACTREQNRICTCRPGWYCALSKQEGCRLCAPLRKCRPGFGVARPGTETSDVVCKPCAPGTFSNTTSSTDICRPHQICNVVAIPGNASMDAVCTSTSPTRSMAPGAVHLPQPVSTRSQHTQPTPEPSTAPSTSFLLPMGPSPPAEGSTGDFALPVGLIVGVTALGLLIIGVVNCVIMTQVKKKPLCLQREAKVPHLPADKARGTQGPEQQHLLITAPSSSSSSLESSASALDRRAPTRNQPQAPGVEASGAGEARASTGSSDSSPGGHGTQVNVTCIVNVCSSSDHSSQCSSQASSTMGDTDSSPSESPKDEQVPFSKEECAFRSQLETPETLLGSTEEKPLPLGVPDAGMKPS", "values": [{"measurement": "Kd", "setting": "TNF", "result": 41.8, "unit": "pM"}]}, {"binder": "ACE2 (M)-Fc-TNFR2 (Fc fusion) QSTIEEQAKFFLDYFNHEAEDLFYQSSLASWNYNTNITEENVQNMNNAGDKWSAFLKEQSTWAQMYPLQEIQNLTVKLQLQALQQNGSSVLSEDKSKRLNTILNTMSTIYSTGKVCNPDNPQECLLLEPGLNEIMANSLDYNERLWAWESWRSEVGKQLRPLYEEYVVLKNEMARANHYEDYGDYWRGDYEVNGVDGYDYSRGQLIEDVEHTFEEIKPLYEHLHAYVRAKLMNAYPSYISPIGCLPAHLLGDMWGQFWTNLYSLTVPFGQKPNIDVTDAMVDQAWDAQRIFKEAEKFFVSVGLPNMTQGFWEYSMLTDPGNVQKAVCHPTAWDLGKGDFRILMCTKVTMDDFLTAHHEMGHIQYDMAYAAQPFLLRNGANEGFHEAVGEIMSLSAATPKHLKSIGLLSPDFQEDNETEINFLLKQALTIVGTLPFTYMLEKWRWMVFKGEIPKDQWMKKWWEMKREIVGVVEPVPHDETYCDPASLFHVSNDYSFIRYYTRTLYQFQFQEALCQAAKHEGPLHKCDISNSTEAGQKLFNMLRLGKSEPWTLALENVVGAKNMNVRPLLNYFEPLFTWLKDQNKNSFVGWSTDWSPYADQSIKVRISLKSALGDKAYEWNDNEMYLFRSSVAYAMRQYFLKVKNQMILFGEEDVRVANLKPRISFNFFVTAPKNVSDIIPRTEVEKAIRMSRSRINDAFRLNDNSLEFLGIQPTLGPPNQPPVSGGGGSGGGGSGGGGSLPAQVAFTPYAPEPGSTCRLREYYDQTAQMCCSKCSPGQHAKVFCTKTSDTVCDSCEDSTYTQLWNWVPECLSCGSRCSSDQVETQACTREQNRICTCRPGWYCALSKQEGCRLCAPLRKCRPGFGVARPGTETSDVVCKPCAPGTFSNTTSSTDICRPHQICNVVAIPGNASMDAVCTSTSPTRSMAPGAVHLPQPVSTRSQHTQPTPEPSTAPSTSFLLPMGPSPPAEGSTGD", "values": [{"measurement": "Kd", "setting": "[1]", "result": 258, "unit": "pM"}]}, {"binder": "ACE2 (M)-Fc (Fc fusion) QSTIEEQAKFFLDYFNHEAEDLFYQSSLASWNYNTNITEENVQNMNNAGDKWSAFLKEQSTWAQMYPLQEIQNLTVKLQLQALQQNGSSVLSEDKSKRLNTILNTMSTIYSTGKVCNPDNPQECLLLEPGLNEIMANSLDYNERLWAWESWRSEVGKQLRPLYEEYVVLKNEMARANHYEDYGDYWRGDYEVNGVDGYDYSRGQLIEDVEHTFEEIKPLYEHLHAYVRAKLMNAYPSYISPIGCLPAHLLGDMWGQFWTNLYSLTVPFGQKPNIDVTDAMVDQAWDAQRIFKEAEKFFVSVGLPNMTQGFWEYSMLTDPGNVQKAVCHPTAWDLGKGDFRILMCTKVTMDDFLTAHHEMGHIQYDMAYAAQPFLLRNGANEGFHEAVGEIMSLSAATPKHLKSIGLLSPDFQEDNETEINFLLKQALTIVGTLPFTYMLEKWRWMVFKGEIPKDQWMKKWWEMKREIVGVVEPVPHDETYCDPASLFHVSNDYSFIRYYTRTLYQFQFQEALCQAAKHEGPLHKCDISNSTEAGQKLFNMLRLGKSEPWTLALENVVGAKNMNVRPLLNYFEPLFTWLKDQNKNSFVGWSTDWSPYADQSIKVRISLKSALGDKAYEWNDNEMYLFRSSVAYAMRQYFLKVKNQMILFGEEDVRVANLKPRISFNFFVTAPKNVSDIIPRTEVEKAIRMSRSRINDAFRLNDNSLEFLGIQPTLGPPNQPPVS", "values": [{"measurement": "Kd", "setting": "[1]", "result": 274, "unit": "pM"}]}]}
